# Source: the DeepSol protein solubility set
# Experiment: soluble on expression in E. coli; label from the status in PepcDB or PDB records
row,Sequence,soluble on expression in E. coli
1,MAHHHHHHMFLRPHEINILMNEMKIIYEFKKEYYEIILNENNADDNVIDLFEKNTNKCNIEIKPYDDINSDLLDFDQFKMFNIDKDDIKKKNEDKKDEDRIKYILDKESYNNSIDKLNDNSCDESCYITDDELCKQINNPFDNTYNNKFVVKYKEYFEENSFIVKKGDIYGADFLLYITEQKYAHSLYAVYIIYKHYILRDLIRILRVSHSIKKKVILILWNELNCFNISDTLVYIKSYKYK,soluble
2,TLDEVKSLWDPRGISGTETASPQSDTPQAVSGASQPRWLRLSNGKQVDLRDWKVVLFMQGHCPYCHKFDPVLKQLAGQYGFSVFSYTIDGQGDDAFPEALPAPPDVMQTFFPNIPVATPTTFLVNVNTLAAYPILQGATDAQGFMARVDTVFQ,not soluble
3,MQRLSGLDASFLYLETSTQLLHVCGVIVLDVSTVPGGYTFAQLKAELGARTEAIPSFRRKLQDSKFNLDHPVWVEDTDFDIDRHCHRVALPAPGGRDELAELCGDIAGIPLDRARPLWEMWVIEGLEDGSVAVMSKMHHAGVDGITGANMMAQLCGLEPDAPRPGPDDSAESAGQASTLDIAVGGLLAVASRPAKLLRIVPQSLTLLPRWIGRARRGAAMPAPFTAPRTSLNGTLTSHRNLAFTQLDLEKVKTVKDAFDVKVNDVVLALCSGALRKYLQDRRELPDKSLVAIVPVSVHGKSDRPGTNQVSGMFTQLGTQIEDPAERLLAIGEHNSTSKEHNETLGASLLQDWSQFAGQAVFGTAMRLYSTLGLAERHPVVHNLVISNVPGPSVPLYFLGALIKAMYPLGPIFHGAGLNVTVMSLNGQLDVGLMSCPELAPHLWDLVDAFPAALDELVEAAGNRS,not soluble
4,MWRGKYSGGYQNRFVSAKSSGTSSLSDGKSMNNVPPPAALTVGNAPVPPPNRNILLSNRKEQEMKKEQEYANLMAYGSTSEKQSRRKRIYDDEYLEGGSDDEKPASSSSKLAADDDDEEDELDAFMAGIEKQASSDKKVSEQKEKDRKEGKDTEDPSKKGLGRADIDEEDMQESLFKFMEEYKEKHENDDEQLEYDEDGNIIWSWKKVIDPLPDIDHSQIQYQKFNKNFYEEHEDIKRLHYMDVIRLQNTMNLRVGGLKPPRPVCSFAHFSFDKLLMEAIRKSEYEQPTPIQAMAIPSALSGRDVLGIAKTGSGKTAAYLWPAIVHIMDQPDLKAGEGPVAVIVVPTRELAIQVFQEAKKFCKVYNINPICAYGGGSKWEQSNELQNEGAEMVVCTPGRIIDLVKMGATNFLRTTFLVFDEADRMFDMGFEAQVKSISDHVRPDRQCLMFSATFKQKVERLARDALVDPVRIVQGEVGEANADIEQKVFVMQNQDVKLHWLIRNLVEFASLGKVLIFVTKKLDSEDVAKKLKMKDFDIVLLHGDMLQAERNENLLKFRKKSQILVATDVAARGLDISEIRTVINFDMARDIDTHVHRIGRTGRAGHKGTAYTLVTEKDIEMVGHLVKNLESVSQEVPKPLMDLAMKSSWFRGQRAGNGGPSTGTQTRGRMGLGYTPKVRQVGGGATGAQFDPLKEQKSCRGGGNQTVDGMIRNAQSFATSSSSSSSSSSGPASGANRAQMLKSAFQKSFQTTFQRPTNESSNLPQQVASDPRPEWKKKVDELNAKIAQQQASSASGGSSSSSSSSKRSRWE,not soluble
5,VERMYDVTPPGVVMGLAWTAMGGSTLFVETSLRRPQDKDAKGDKDGSLEVTGQLGEVMKESARIAYTFARAFLMQHAPANDYLVTSHIHLHVPEGATPKDGPSAGCTIVTALLSLAMGRPVRQNLAMTGEVSLTGKILPVGGIKEKTIAAKRAGVTCIVLPAENKKDFYDLAAFITEGLEVHFVEHYREIFDIAFPDEQAEALAVER,soluble
6,MGSDKIHHHHHHMHKDVSQLPQKANPALVKQANLFADLPTKLIEDFQQEFQLNQWNKGDYINSDILTQRFFVVIEGNIEIKQSNPDTGREATLDMLYAGDCFDLMVLLDNQPHEVIISPLTTVKLLSVKLSTMRYWLWTYPEFNQQFMPYIAKKMREKEQQASSLILHDVTTRLSRIILEHINKIKFYTGTKEEEHQHHLVNGLNDETLARMTGSVRQVINKQLQHWKKEDVIDKKRNQLIIKDLEALEKEAKYTQNLANAPLSKS,not soluble
